According to US6759212B1, “Cell cycle-regulating proteins” (Chugai Seiyaku Kabushiki Kaisha, priority 1997, dated 2004):
Where “and” joins values, the source holds several entries; their conditions need not be identical. Equal entries are not always repeated.

Assays:
Mv1Lu cells [1] = test: Growth for 2 weeks with or without DOX, Giemsa staining; format: cell-based, mink; conditions: grown 2 weeks with or without doxycycline
Protocol: The nuclei of these AIM-1 (K-R)-expressing cells divided 3 to 4 times during 4 to 5 days, resulting in more than 10 nuclei per cell (FIG. 5D).
Mv1Lu cells transfected with FLAG-AIM-1 (WT) or FLAG-AIM-1 (K-R) were grown with or without DOX for 2 weeks and stained with Giemsa's solution.

NRK-49F cells = test: Abnormal cytokinesis: cells having two or more nuclei after transient transfection; format: cell-based, rat; conditions: 72 hours after transfection
Description: (§1) To confirm the generality of this observation, AIM-1 (WT) and AIM-1 (K-R) plasmids were transiently expressed in NRK-49F cells and human diploid fibroblast KD cells and the results were compared with those obtained in a control transfected with vector alone. These constructs were transfected into cell-s with a reporter construct […] to prepare β-galactosidase-expressing plasmids for use as a positive internal control for transfection (Table 1).
(§2) (2) Abnormal Cytokinesis in Cells Expressing AIM-1 (K-R) Plasmid FLAG-AIM-1 (WT), FLAG-AIM-1 (K-R) or a control plasmid pEF/hygI was cotransfected with a reporter construct RSV-β-galactosidase at a ratio of 10:1 into NRK-49F cells and human diploid fibroblast KD cells (a kind gift of late Dr. Takeo Kakunaga) by Lipofectin method. After 24 hours, 1×10^3 cells were seeded per 60 mm dish, and 72 hours after transfection, cells were fixed in 1.25% glutaraldehyde/PBS and stained by a method described in literature (Shu et al., J.C.S. 108:2955-62, 1995) to observe expression of β-galactosidase. MvlLu cells were also tested under the conditions described in (1) B above.
(§3) 1. The figures in the table mean the percentage of cells having two or more nuclei to β-galactosidase positive cells for NRK-49F cells and KD cells or the percentage of cells having two or more nuclei to the total number of cells for MvlLu cells. […]

Mv1Lu cells [2] = test: FACS analysis of DNA content (propidium iodide); format: cell-based, mink; conditions: 72 hour-induction
Protocol: (§4) MvlLu cells carrying vector alone, wild-type FLAG-AIM-1 (WT) or FLAG-AIM-1 (K-R) were grown in the presence or absence of doxycycline (tetracycline analog) for 24 hours and then subjected to western blot with anti-FLAG antibody (FIG. 4A). […] In addition, the size of these cells was much larger than normal cells (FIGS. 4Bf and 5D). In these abnormal cells, however, spindle. functions including chromosome disjunction and late anaphase spindle elongation as well as nuclear division appeared unaffected (data not shown). This was further confirmed by flow cytometry (FACS) (FIG. 4C). […] Namely, apocytes appeared because karyokinesis advances but cytokinesis is inhibited.
Cell samples were harvested and fixed with ethanol, stained with propidium iodide for FACS analysis.

Mv1Lu cells [3] = test: Abnormal cytokinesis: cells having two or more nuclei, tetracycline-inducible expression, Giemsa staining; format: cell-based, mink; conditions: for percentage of cells having two or more nuclei to the total number of cells: Mv1Lu, 72 hours
Protocol: as §4
Then, asynchronous cells transfected with vector alone (a, d), FLAG-AIM-1 (WT) (b, e) or FLAG-AIM-1 (K-R) (c, f) were grown with (a-c) or without (d-f) DOX for 72 hours and stained with Giemsa's solution. Results are shown in FIG. 4B, wherein upper panels are called as a, b and c from left to right, and lower panels are called as d, e and f from left to right.
as §2
1. The figures in the table mean the percentage of cells having two or more nuclei to β-galactosidase positive cells for NRK-49F cells and KD cells or the percentage of cells having two or more nuclei to the total number of cells for MvlLu cells. For each cell line, 160 or more cells were tested.

[4] = test system: human diploid fibroblast KD cells; test: Abnormal cytokinesis: cells having two or more nuclei after transient transfection; format: cell-based; conditions: 72 hours after transfection
Description: as §1, §2, §3

B1: AIM-1 (K-R): kinase-inactive (dominant negative) FLAG-AIM-1 in which lysine at the 109-position was replaced by arginine, expressed from plasmid (protein, UniProt O55099 1-343, looked up, variant K109R)
Aurora kinase B: MAQKENVYPWPYGSKTSQSGLNTLPQRVLRKEPAVTPAQALMNRSNSQSTAVPGQKLTENKGATALQGSQSRQPFTIDNFEIGRPLGKGKFGNVYLAREKKSRFIVALRILFKSQIEKEGVEHQLRREIEIQAHLKHPNILQLYNYFYDQQRIYLILEYAPRGELYKELQKSGTFDEQRTATIMEELSDALMYCHKKKVIHRDIKPENLLLGLQGELKIADFGWSVHAPSLRRKTMCGTLDYLPPEMIEGRMHNEMVDLWCIGVLCYELMVGNPPFESPSHSETYRRIVKVDLKFPSSMPLGAKDLISKLLKHNPSQRLPLEQVSAHPWVRANSRRVLPPSAL
modifications: N-terminal FLAG tag
effect on growth potency (mitotic inhibition) (Mv1Lu cells [1]): miotic inhibition was observed | percentage of cells having two or more nuclei to β-galactosidase positive cells (NRK-49F cells): 62% | cell population with 4N or 8N DNA / cell cycle pattern (FACS) (Mv1Lu cells [2]): dramatically increased | nuclei per cell (Mv1Lu cells [3]; Mv1Lu cells expressing construct, during 4 to 5 days): more than 10 | percentage of cells having two or more nuclei to the total number of cells (Mv1Lu cells [3]; DOX(+) (not induced)): 7.7% | percentage of cells having two or more nuclei to the total number of cells (Mv1Lu cells [3]; DOX(−) (induced)): 68.4% | percentage of cells having two or more nuclei to the total number of cells (Mv1Lu cells [3]; DOX(−) (induced), listed as FLAG-AIM-1 (K-R)): about 68% | percentage of cells having two or more nuclei to β-galactosidase positive cells [4]: 38% and 38.4%
